These results are taken from patent US8114832 (UMC UTRECHT HOLDING B V, dated 2012).

For test [1], the target named is T1, recombinant human β2-glycoprotein I (human, UniProt P02749 20-345).
T1 construct: Said to hold more cross-β structure conformation than plasma β2GPI; also called recombinant β2GPI; rec. β2GPI
T1 sequence (looked up): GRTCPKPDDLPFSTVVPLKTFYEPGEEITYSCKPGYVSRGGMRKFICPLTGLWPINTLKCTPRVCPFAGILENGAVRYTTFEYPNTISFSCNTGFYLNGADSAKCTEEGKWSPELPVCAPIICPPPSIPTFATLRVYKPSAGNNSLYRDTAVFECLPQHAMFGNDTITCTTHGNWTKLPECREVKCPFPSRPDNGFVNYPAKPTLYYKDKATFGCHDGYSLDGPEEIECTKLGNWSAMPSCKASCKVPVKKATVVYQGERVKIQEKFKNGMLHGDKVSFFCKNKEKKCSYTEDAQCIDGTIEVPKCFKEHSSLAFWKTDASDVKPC
As to the kind of experiment: SPR (Biacore), chemically synthesized HGFA F immobilized (190 RU). As to the method: The running buffer during immobilization was 10 mM HEPES pH 7.4, 140 mM NaCl. Buffers were filtrated on a 0.22 μm filter (white GSWP, 47 mm, Millipore) and degassed at room temperature.
Regeneration buffer was running buffer supplemented with 1 M NaCl.
(In general: In SPR one partner is held on a chip, and binding of the other changes the refractive index at the surface.)

Test [2] deals with T1, recombinant human β2-glycoprotein I. The experiment in a line: SPR (Biacore), chemically synthesized tPA F immobilized (395 RU). The method, then:
Then, the proteins were covalently coupled to the activated dextran surface. Remaining activated groups in each of the four flow channels were blocked by injection of 35 μl of 1 M ethanolamine hydrochloride pH 8.5. EDC, NHS and ethanolamine hydrochloride were obtained from Biacore. […] The running buffer during immobilization was 10 mM HEPES pH 7.4, 140 mM NaCl. Buffers were filtrated on a 0.22 μm filter (white GSWP, 47 mm, Millipore) and degassed at room temperature.

Ends that are not written are not given here.

B1: chemically synthesized HGFA F domain (other, UniProt Q04756 200-240, looked up)
chain: EKCFDETRYEYLEGGDRWARVRQGHVEQCECFGGRTWCEGT
modifications: cysteine pairing not given here; also: acetylated lysine, position not given here
notes: domain: F domain; Made from two peptides by native chemical ligation
On to B1, for which the binding result in test [1] is “no binding (tested: 0-300 mM (so in the source))”.

B2: chemically synthesized tPA F domain (other)
chain: SYQVICRDEKTQMIYQQHQSWLRPVLRSNRVEYCWCNSGRAQCHSVPVKSK
modifications: cysteine pairing not given here; also: C-terminal lysine acetylated or biotinylated
notes: as for B1
For B2, the binding result in test [2] is recorded as “no binding (tested: 0-300 mM (so in the source))”.
